Here are results for 4 molecules from publication PMC12152161, “Molecular basis for assembly and activation of the Hook3 − KIF1C complex-dependent transport machinery” (EMBO Reports, 2025).

Sequences and labels used below:
B1: full-length Hook3(WT)−Myc−FuRed (natural protein, UniProt Q86VS8 1-718, looked up)
chain: MFSVESLERAELCESLLTWIQTFNVDAPCQTVEDLTNGVVMAQVLQKIDPAYFDENWLNRIKTEVGDNWRLKISNLKKILKGILDYNHEILGQQINDFTLPDVNLIGEHSDAAELGRMLQLILGCAVNCEQKQEYIQAIMMMEESVQHVVMTAIQELMSKESPVSAGNDAYVDLDRQLKKTTEELNEALSAKEEIAQRCHELDMQVAALQEEKSSLLAENQVLMERLNQSDSIEDPNSPAGRRHLQLQTQLEQLQEETFRLEAAKDDYRIRCEELEKEISELRQQNDELTTLADEAQSLKDEIDVLRHSSDKVSKLEGQVESYKKKLEDLGDLRRQVKLLEEKNTMYMQNTVSLEEELRKANAARSQLETYKRQVVELQNRLSEESKKADKLDFEYKRLKEKVDSLQKEKDRLRTERDSLKETIEELRCVQAQEGQLTTQGLMPLGSQESSDSLAAEIVTPEIREKLIRLQHENKMLKLNQEGSDNEKIALLQSLLDDANLRKNELETENRLVNQRLLEVQSQVEELQKSLQDQGSKAEDSVLLKKKLEEHLEKLHEANNELQKKRAIIEDLEPRFNNSSLKIEELQEALRKKEEEMKQMEERYKKYLEKAKSVIRTLDPKQNQGAAPEIQALKNQLQERDRLFHSLEKEYEKTKSQREMEEKYIVSAWYNMGMTLHKKAAEDRLASTGSGQSFLARQRQATSSRRSYPGHVQPATAR
B2: His10 − MBP − KIF1C(714–809) (domain or fragment, UniProt O43896 714-809, looked up)
chain: PSSGKRRAPRRVYQIPQRRRLQGKDPRWATMADLKMQAVKEICYEVALADFRHGRAEIEALAALKMRELCRTYGKPDGPGDAWRAVARDVWDTVGE
notes: Tag kept, as named in the legends and methods of the native gel, ITC and SEC experiments; also called KIF1C_(H3BD); source: E. coli BL21(DE3) RIL, purified (Ni-NTA, size-exclusion chromatography); not shown: His10, N-terminal, kept; MBP, N-terminal, kept
B3: His10 − MBP−Hook3(553–624) (domain or fragment, UniProt Q86VS8 553-624, looked up)
chain: EKLHEANNELQKKRAIIEDLEPRFNNSSLKIEELQEALRKKEEEMKQMEERYKKYLEKAKSVIRTLDPKQNQ
notes: Tagged form used in native gels and ITC; also called Hook3CC3; source: E. coli BL21(DE3) RIL, purified (Ni-NTA, size-exclusion chromatography); not shown: His10, N-terminal, kept; MBP, N-terminal, kept
B4: Hook3(553–624) (domain or fragment, UniProt Q86VS8 553-624, looked up)
chain: B3 chain
notes: Untagged form used in the SEC replacement analysis and in the crystals; parallel coiled-coil homodimer in both crystal structures; A selenomethionine-substituted form was also made for the apo structure; also called Hook3CC3; source: E. coli BL21(DE3) RIL, purified (Ni-NTA, size-exclusion chromatography, tag removed with TEV protease); not shown: His10, N-terminal, cleaved; MBP, N-terminal, …

For data set [1], the target named is T1, full-length KIF1C(WT)−Flag−EGFP (UniProt O43896 1-1103).
T1 sequence (looked up): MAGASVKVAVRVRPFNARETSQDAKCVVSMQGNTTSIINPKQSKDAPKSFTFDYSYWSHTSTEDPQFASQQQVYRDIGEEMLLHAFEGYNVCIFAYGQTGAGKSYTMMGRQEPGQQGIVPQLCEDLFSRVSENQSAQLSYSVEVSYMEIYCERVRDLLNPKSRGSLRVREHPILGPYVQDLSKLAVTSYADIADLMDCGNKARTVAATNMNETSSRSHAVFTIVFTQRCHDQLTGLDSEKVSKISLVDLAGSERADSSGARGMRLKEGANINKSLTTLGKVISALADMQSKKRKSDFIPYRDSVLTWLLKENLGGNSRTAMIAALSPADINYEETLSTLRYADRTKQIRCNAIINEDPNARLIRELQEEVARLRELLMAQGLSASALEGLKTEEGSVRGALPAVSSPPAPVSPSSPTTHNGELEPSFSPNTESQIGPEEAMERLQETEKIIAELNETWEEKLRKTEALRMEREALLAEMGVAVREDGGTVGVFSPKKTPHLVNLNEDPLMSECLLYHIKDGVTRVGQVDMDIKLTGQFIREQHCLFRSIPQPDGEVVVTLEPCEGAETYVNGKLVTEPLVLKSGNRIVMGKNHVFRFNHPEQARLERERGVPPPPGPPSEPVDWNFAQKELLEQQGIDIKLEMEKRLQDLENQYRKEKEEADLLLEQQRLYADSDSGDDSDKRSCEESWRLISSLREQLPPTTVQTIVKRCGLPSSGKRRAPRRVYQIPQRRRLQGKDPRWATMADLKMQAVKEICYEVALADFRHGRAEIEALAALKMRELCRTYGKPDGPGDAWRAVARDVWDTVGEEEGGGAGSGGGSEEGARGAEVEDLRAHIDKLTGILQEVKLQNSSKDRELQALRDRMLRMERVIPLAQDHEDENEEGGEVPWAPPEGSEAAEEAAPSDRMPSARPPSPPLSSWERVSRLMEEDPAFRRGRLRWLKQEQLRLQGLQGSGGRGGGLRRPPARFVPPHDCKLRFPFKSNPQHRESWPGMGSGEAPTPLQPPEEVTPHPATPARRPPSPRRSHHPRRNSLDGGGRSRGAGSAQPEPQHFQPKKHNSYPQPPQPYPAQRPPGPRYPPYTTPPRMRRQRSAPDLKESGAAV
Nature of the data set: cell-based or functional assay.

In data set [2] the target is T2, His10 − MBP−Hook3(553–718) (UniProt Q86VS8 553-718).
T2 construct: source: E. coli BL21(DE3) RIL, purified (Ni-NTA, size-exclusion chromatography); not shown: His10, N-terminal, kept; MBP, N-terminal, kept
T2 sequence (looked up): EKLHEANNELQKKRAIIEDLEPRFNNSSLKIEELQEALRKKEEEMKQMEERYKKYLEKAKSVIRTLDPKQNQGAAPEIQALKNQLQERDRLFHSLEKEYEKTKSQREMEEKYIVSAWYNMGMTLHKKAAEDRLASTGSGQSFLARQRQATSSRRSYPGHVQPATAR
In words: native gel or EMSA; His10−MBP-tagged recombinant proteins alone or mixed (10 µM; molar ratio 1:1), incubated 16 h at 4 °C, 10% native gel, 120 V for 2 h on ice, Coomassie staining. The settings on record: both partners purified.

Data set [3] addresses T3, His10 − MBP − PTPN21(19–308) (UniProt Q16825 19-308).
T3 construct: Tagged form used in native gels and ITC; also called PTPN21_(FERM); FERM domain of PTPN21; source: E. coli BL21(DE3) RIL, purified (Ni-NTA, size-exclusion chromatography); not shown: His10, N-terminal, kept; MBP, N-terminal, kept
T3 sequence (looked up): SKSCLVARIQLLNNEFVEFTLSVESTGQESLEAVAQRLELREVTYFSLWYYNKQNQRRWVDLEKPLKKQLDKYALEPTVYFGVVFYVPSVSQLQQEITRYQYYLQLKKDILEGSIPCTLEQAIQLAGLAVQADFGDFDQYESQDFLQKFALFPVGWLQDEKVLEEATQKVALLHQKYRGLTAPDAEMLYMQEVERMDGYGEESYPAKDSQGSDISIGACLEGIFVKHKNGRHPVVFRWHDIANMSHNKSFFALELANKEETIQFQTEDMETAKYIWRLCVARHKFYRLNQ
Nature of the data set: ITC; 0.8 mM His10−MBP−Hook3(553–624) or His10−MBP−PTPN21(19–308) titrated into 0.04 mM His10−MBP−KIF1C(714–809); 25 °C; 50 mM Tris-HCl pH 7.5, 500 mM NaCl, 3 mM β-mercaptoethanol; MicroCal VP-ITC. Conditions: both partners purified. For orientation: Isothermal titration calorimetry measures the heat released or taken up as one component is titrated into another.

Data set [4] concerns the target B2. The description is as above. Conditions: both partners purified.
Data set [5] deals with the molecule itself. Nature of the data set: crystal structure; Hook3(553–624) − KIF1C(714–809) complex, 30 mg/mL, sitting drop at 4 °C, 0.1 M sodium citrate/citric acid pH 5.5, 20% PEG 4000, 20% isopropanol; 3.0 Å.

Take B1: in data set [1], the “tail/cytoplasm ratio of Hook3−Myc−FuRed upon co-expression in RPE1 cells, 16 h post transfection” value stood at 1.3 tail/cytoplasm ratio and the “tail/cytoplasm ratio of KIF1C−Flag−EGFP upon co-expression in RPE1 cells, 16 h post transfection” value came out at 3.6 tail/cytoplasm ratio.
What is called Kd is the free concentration of one partner at which half of the binding sites on the other are occupied at equilibrium, for simple one-to-one binding. For B2, in data set [2], the binding result was “binds”. The molecule further displayed a dissociation constant (Kd) in data set [3] of 5.15 µM.
In the case of B3, binding in data set [4] was put at a Kd of 1.58 µM.
One may read the stoichiometry N as a count of units in the complex or per binding partner. B4: in data set [5], the “stoichiometry N” value turned out to be 2.
